Values quoted from earlier work in PMC6752817, “Identification and characterization of a novel heparan sulfate-binding domain in Activin A longest variants and implications for function” (PLoS ONE, 2019).

Tested on: mutant ALK2
Conditions: ref [52]; cited from earlier work
Text: In the musculoskeletal research field, interest in Act A biology has been re-invigorated by recent evidence of its pathogenic roles in the pediatric congenital disorder Fibrodysplasia Ossificans Progressiva (FOP). FOP is characterized by episodic formation of extraskeletal cartilage and bone tissue–a process collectively termed heterotopic ossification (HO)—at multiple sites, eventually involving much of the body. HO is preceded by local inflammation and over time, the accumulated ectopic tissue causes multiple health problems and impediments—including skeletal deformities, chron ...

B1: activin A (protein, UniProt P08476 311-426, looked up)
Inhibin beta A chain: GLECDGKVNICCKKQFFVSFKDIGWNDWIIAPSGYHANYCEGECPSHIAGTSGSSLSFHSTVINHYRMRGHSPFANLKSCCVPTKLRPMSMLYYDDGQNIIKKDIQNMIVEECGCS
modifications: Inhibin beta A chain
For B1, the “pSMAD1/5/8 signaling through mutant ALK2” value is listed as “elicits pSMAD1/5/8 signaling”.
